Here are results for two molecules from article doi:10.1101/2020.05.22.111005 (bioRxiv, 2020).

The assay concerns the target SARS-CoV-2 RBD fused to mouse Fc (RBD-mFc) (SARS-CoV-2, UniProt P0DTC2). Description: BLI. For orientation: Biolayer interferometry detects binding as a change in optical thickness at a sensor tip.

B1: COV2-2196 (human mAb) (antibody, V domains shown)
VH: QMQLVQSGPEVKKPGTSVKVSCKASGFTFMSSAVQWVRQARGQRLEWIGWIVIGSGNTNYAQKFQERVTITRDMSTSTAYMELSSLRSEDTAVYYCAAPYCSSISCNDGFDIWGQGTMVTVSS
VL: not shown
Take B1: the binding result was “binds”.

B2: COV2-2165 (human mAb) (antibody, V domains shown)
VH: EVQLVESGGGLVQPGGSLRLSCAASGLTVRSNYMTWVRQTPGKGLEWVSVIYSGGSTFYADSVKGRFTISRDNSKNTVYLQMNSLRAEDTAVYYCARDLVTYGLDVWGQGTTVTVSS
VL: DIQLTQSPSFLSASVGDRVTITCRASQGISNYLAWYQQKPGTAPNLLIYAASTLQSGVPSRFSGSGSGTEFTLTISSLQPEDFATYYCQLLNSHPLTFGQGTRLEIK
For the molecule B2, the binding result was “binds”.
